The supplement of paper PMC7125110
± gives the standard error. For some of these results: Fewer inactive variants are shown than the library holds.

B1: glmS ribozyme (parent)
chain: AUAAAAGCGCCAGAACUACAGAAAUGUAGUUGACGAGGAGGAGGUUUAUCGAAUUUUCGGCGGAUGCCUCCAAA

Legend:
Conditions in all cases: with glucosamine-6-phosphate
glucosamine-6-phosphate [1] = variants of: B1; assay: kcat; higher = faster cleavage; RNA array
Summary of the method: (§1)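 The measurements used barcoded ribozyme variants on sequenced MiSeq chips, transcribed in situ by E. coli RNA polymerase and tracked at 37 °C with a hybridised Cy3 probe. Glucosamine-6-phosphate, 40 μM to 10 mM in HEPES/KCl/Mg(OAc)2 buffer, was flowed in while tiles were imaged over ~14 h. Baseline-normalised signals, also normalised to non-cleaving reference variants, gave per-tile medians that were fit to one- or two-exponential decays for kobs. kcat and KM resulted from weighted Michaelis–Menten fits across concentrations.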

glucosamine-6-phosphate [2] = variants of: B1; assay: self-cleavage kobs at 160 uM GlcN6P; higher = faster cleavage; RNA array
Summary of the method: as §1

glucosamine-6-phosphate [3] = variants of: B1; assay: self-cleavage kobs at 640 uM GlcN6P; higher = faster cleavage; RNA array
Summary of the method: as §1

glucosamine-6-phosphate [4] = variants of: B1; assay: self-cleavage kobs at 2500 uM GlcN6P; higher = faster cleavage; RNA array
Summary of the method: as §1

glucosamine-6-phosphate [5] = variants of: B1; assay: self-cleavage kobs at 10000 uM GlcN6P; higher = faster cleavage; RNA array
Summary of the method: as §1

glucosamine-6-phosphate [6] = variants of: B1; assay: self-cleavage kobs at 40 uM GlcN6P; higher = faster cleavage; RNA array
Summary of the method: as §1

glucosamine-6-phosphate [7] = variants of: B1; assay: KM; higher = weaker cofactor use; RNA array
Summary of the method: as §1

Variant | kcat (glucosamine-6-phosphate [1]) [s⁻¹] | self-cleavage kobs at 160 uM GlcN6P (glucosamine-6-phosphate [2]) [s⁻¹] | self-cleavage kobs at 640 uM GlcN6P (glucosamine-6-phosphate [3]) [s⁻¹] | self-cleavage kobs at 2500 uM GlcN6P (glucosamine-6-phosphate [4]) [s⁻¹] | self-cleavage kobs at 10000 uM GlcN6P (glucosamine-6-phosphate [5]) [s⁻¹] | self-cleavage kobs at 40 uM GlcN6P (glucosamine-6-phosphate [6]) [s⁻¹] | KM (glucosamine-6-phosphate [7]) [µM]
AUAAAAGCGCCAGAACUACAGAAAUGUAGUUGACGAGGAGGAGGUUUAUCGAAUUUUCGGCGGGUGCCUCGAAA [A64G C71G] | 0.000386 ± 8.2e-05 | 6.24e-05 ± 2e-05 | 0.000495 ± 0.00013 | 0.000271 ± 2.9e-05 | 0.000398 ± 5.8e-05 |  | 
AUAAAAGCGCCAGAACUACAGAAAUGUAGUUGACGAGGAGGAGGUUUAUCGAAUUUUCGGCGUAUGCCUGCAAA [G63U C70G] | 2.12e-05 ± 4.8e-06 |  | 2.59e-05 ± 1.1e-05 | 2.19e-05 ± 1e-05 |  |  | 
AUAAAAGCGCCAGAACUACAGAAAUGUAGUUGACGAGGAGGAGGUUUAUCGAAUUUUCGGCGGUUGUCUCCAAA [A64U C67U] | 5.93e-05 ± 6.4e-06 |  |  | 5.62e-05 ± 8.7e-06 | 5.31e-05 ± 6.3e-06 |  | 
AUAAAAGCGCCAGAACUACAGAAAUGUAGUUGACGAGGAGGAGGUUUAUCGAAUUUUCGGCGGUUGACUCCAAA [A64U C67A] | 2.58e-05 ± 3.2e-06 |  |  |  | 2.41e-05 ± 6.5e-06 |  | 
AUAAAAGCGCCAGAACUACAGAAAUGUAGUUGACGAGGAGGAGGUUUAUCGAAUUUUCGGCGUAUGUCUCCAAA [G63U C67U] | < 1e-05 |  | < 1e-05 |  |  | < 1e-05 | 
AUAAAAGCGCCAGAACUACAGAAAUGUAGUUGACGAGGAGGAGGUUUAUCGAAUUUUCGGCGUAUGACUCCAAA [G63U C67A] | < 1e-05 | < 1e-05 |  |  | < 1e-05 |  | 
AUAAAAGCGCCAGAACUACAGAAAUGUAGUUGACGAGGAGGAGGUUUAUCGAAUUUUCGGCGGGUGACUCCAAA [A64G C67A] | 0.00338 ± 0.00073 | 0.000303 ± 4.4e-05 | 0.000794 ± 0.00012 | 0.0018 ± 0.00034 | 0.00346 ± 0.00059 | 9.53e-05 ± 1.7e-05 | 1730 ± 520
AUAAAAGCGCCAGAACUACAGAAAUGUAGUUGACGAGGAGGAGGUUUAUCGAAUUUUCGGCGCAUGGCUCCAAA [G63C C67G] | < 1e-05 |  |  |  |  | < 1e-05 | 
AUAAAAGCGCCAGAACUACAGAAAUGUAGUUGACGAGGAGGAGGUUUAUCGAAUUUUCGGCGAAUGCCUACAAA [G63A C70A] | 1.85e-05 ± 4.5e-06 |  |  |  |  |  | 
AUAAAAGCGCCAGAACUACAGAAAUGUAGUUGACGAGGAGGAGGUUUAUCGAAUUUUCGGCGAAUGCCUGCAAA [G63A C70G] | 3.27e-05 ± 9.7e-06 |  | 4.94e-05 ± 1.3e-05 | 3.19e-05 ± 9.4e-06 |  |  | 
AUAAAAGCGCCAGAACUACAGAAAUGUAGUUGACGAGGAGGAGGUUUAUCGAAUUUUCGGCGUAUGCCGCCAAA [G63U U69G] | 2.86e-05 ± 7.3e-06 | 3.51e-05 ± 1.5e-05 | 3.96e-05 ± 1.5e-05 |  |  |  | 
AUAAAAGCGCCAGAACUACAGAAAUGUAGUUGACGAGGAGGAGGUUUAUCGAAUUUUCGGCGGUUGCCUCCAAA [A64U] | 0.00017 ± 6.8e-06 | 1.18e-05 ± 2.4e-06 | 4.12e-05 ± 1.3e-06 | 0.000102 ± 1.9e-06 | 0.000141 ± 2.2e-06 |  | 1860 ± 190
AUAAAAGCGCCAGAACUACAGAAAUGUAGUUGACGAGGAGGAGGUUUAUCGAAUUUUCGGCGGGUGCCUCCAAA [A64G] | 0.0475 ± 0.0029 | 0.0031 ± 0.0002 | 0.0109 ± 0.0004 | 0.0249 ± 0.0011 | 0.0412 ± 0.0018 | 0.000914 ± 1.8e-05 | 2080 ± 150
AUAAAAGCGCCAGAACUACAGAAAUGUAGUUGACGAGGAGGAGGUUUAUCGAAUUUUCGGCGGCUGCCUCCAAA [A64C] | 0.000188 ± 1.2e-05 | 1.42e-05 ± 3e-06 | 5.05e-05 ± 1.6e-06 | 0.000127 ± 3e-06 | 0.000157 ± 2.8e-06 |  | 1610 ± 260
AUAAAAGCGCCAGAACUACAGAAAUGUAGUUGACGAGGAGGAGGUUUAUCGAAUUUUCGGCGGCUGCAUCCAAA [A64C C68A] | < 1e-05 |  |  |  | < 1e-05 | < 1e-05 | 
AUAAAAGCGCCAGAACUACAGAAAUGUAGUUGACGAGGAGGAGGUUUAUCGAAUUUUCGGCGCAUGCCACCAAA [G63C U69A] | 1.18e-05 ± 4.3e-06 |  |  |  |  |  | 
AUAAAAGCGCCAGAACUACAGAAAUGUAGUUGACGAGGAGGAGGUUUAUCGAAUUUUCGGCGGGGGCCUCCAAA [A64G U65G] | 0.00619 ± 0.0017 | 0.000262 ± 6e-05 | 0.000845 ± 0.00015 | 0.00174 ± 0.00029 | 0.00489 ± 0.00066 | 5.76e-05 ± 1e-05 | 4490 ± 1700
AUAAAAGCGCCAGAACUACAGAAAUGUAGUUGACGAGGAGGAGGUUUAUCGAAUUUUCGGCGGGUGCAUCCAAA [A64G C68A] | < 1e-05 |  |  |  |  |  | 
AUAAAAGCGCCAGAACUACAGAAAUGUAGUUGACGAGGAGGAGGUUUAUCGAAUUUUCGGCGGGUGCCACCAAA [A64G U69A] | 8.09e-05 ± 8.7e-06 |  | 3.36e-05 ± 1.6e-05 | 4.75e-05 ± 1.6e-05 | 7.42e-05 ± 1.3e-05 | < 1e-05 | 1230 ± 510
AUAAAAGCGCCAGAACUACAGAAAUGUAGUUGACGAGGAGGAGGUUUAUCGAAUUUUCGGCUGAUGCAUCCAAA [G62U C68A] | 1.34e-05 ± 8.7e-07 |  |  |  |  |  | 129 ± 56
AUAAAAGCGCCAGAACUACAGAAAUGUAGUUGACGAGGAGGAGGUUUAUCGAAUUUUCGGCUGAUGCUUCCAAA [G62U C68U] | 1.22e-05 ± 1.2e-06 |  | < 1e-05 |  |  |  | 
